# Test results taken from paper PMC10367076, “Mechanistic and Structural Insights into a Divergent PLP-Dependent L-Enduracididine Cyclase from a Toxic Cyanobacterium” (ACS Catalysis, 2023).
# What was measured:
# [1] = system: N=C(N)NC[C@@H](O)C[C@H](N)C(=O)O; experiment: purified protein; conditions: KPi buffer; PLP cofactor co-purified; cyclodehydration to L-enduracididine
# [2] = biological target: GntC E9A (Sphaerospermopsis torques-reginae ITEP-024); experiment: SEC; analytical size exclusion chromatography of purified wild-type GntC and mutants
# [3] = biological target: GntC E9D (Sphaerospermopsis torques-reginae ITEP-024); experiment: as above
# [4] = biological target: GntC E9Q (Sphaerospermopsis torques-reginae ITEP-024); experiment: as above
# [5] = biological target: GntC K219A (Sphaerospermopsis torques-reginae ITEP-024); experiment: as above
# [6] = biological target: GntC N52A (Sphaerospermopsis torques-reginae ITEP-024); experiment: as above
# [7] = biological target: GntC N52D (Sphaerospermopsis torques-reginae ITEP-024); experiment: as above
# [8] = biological target: GntC N52Q (Sphaerospermopsis torques-reginae ITEP-024); experiment: as above
# [9] = biological target: GntC S25A (Sphaerospermopsis torques-reginae ITEP-024); experiment: as above
# [10] = biological target: GntC T84A (Sphaerospermopsis torques-reginae ITEP-024); experiment: as above
# [11] = biological target: GntC T84V (Sphaerospermopsis torques-reginae ITEP-024); experiment: as above
# [12] = biological target: Sphaerospermopsis torques-reginae ITEP-024 GntC (Sphaerospermopsis torques-reginae ITEP-024); experiment: as above
substance,measurement,setting,value
GntC (Sphaerospermopsis torques-reginae ITEP-024),Km,[1],150 ± 80 µM
same,kcat,[1],0.0061 ± 0.008 min^–1
GntC E9A (enzyme),stoichiometry N,[2],2
GntC E9D (enzyme),stoichiometry N,[3],2
GntC E9Q (enzyme),stoichiometry N,[4],2
GntC K219A (enzyme),stoichiometry N,[5],2
GntC N52A (enzyme),stoichiometry N,[6],2
GntC N52D (enzyme),stoichiometry N,[7],2
GntC N52Q (enzyme),stoichiometry N,[8],2
GntC S25A (enzyme),stoichiometry N,[9],2
GntC T84A (enzyme),stoichiometry N,[10],2
GntC T84V (enzyme),stoichiometry N,[11],2
Sphaerospermopsis torques-reginae ITEP-024 GntC (enzyme),stoichiometry N,[12],2
